Stoichiometry N data for one molecule are collected here from PMC7515705.

In this assay the target is T1, YBEY-3 × FLAG (human), P58557.
T1 chain: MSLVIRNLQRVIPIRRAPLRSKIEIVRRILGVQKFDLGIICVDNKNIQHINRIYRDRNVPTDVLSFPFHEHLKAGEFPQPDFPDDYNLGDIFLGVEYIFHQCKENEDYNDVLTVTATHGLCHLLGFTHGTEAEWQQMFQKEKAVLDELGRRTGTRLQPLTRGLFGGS
In words: affinity purification with mass spectrometry; α-FLAG antibody and protein A-sepharose on mitochondrial lysates (0.5% n-dodecyl-β-D-maltoside, 20 mM Tris-HCl pH 7.5, 150 mM KCl, 4°C) of SAL001 cells expressing YBEY-3 × FLAG; parental Flp-In T-REx 293 as control; LC-MS/MS, spectral counts; YBEY:p32 stoichiometry from spectral abundance factors. The note with it: remark: other sources report otherwise.

One may read the stoichiometry N as a count of units in the complex or per binding partner.

B1: p32/C1QBP, endogenous, Q07021 74-282 (natural protein)
chain: LHTDGDKAFVDFLSDEIKEERKIQKHKTLPKMSGGWELELNGTEAKLVRKVAGEKITVTFNINNSIPPTFDGEEEPSQGQKVEEQEPELTSTPNFVVEVIKNDDGKKALVLDCHYPEDEVGQEDEAESDIFSIREVSFQSTGESEWKDTNYTLNTDSLDWALYDHLMDFLADRGVDNTFADELVELSTALEHQEYITFLEDLKSFVKSQ
Regarding B1, the stoichiometry N was 1.
